According to article PMC4166925:

Columns and labels:
[1] = target: T1, PmTbr T-box (Patiria miniata) (UniProt A0A075Q982)
T1 sequence: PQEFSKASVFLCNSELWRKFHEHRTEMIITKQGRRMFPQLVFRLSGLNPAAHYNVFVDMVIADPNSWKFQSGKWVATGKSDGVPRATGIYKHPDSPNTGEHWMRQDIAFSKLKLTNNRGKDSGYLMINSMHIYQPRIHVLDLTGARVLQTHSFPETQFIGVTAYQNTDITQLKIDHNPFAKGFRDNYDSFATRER

[2] = target: T2, SpTbr T-box (Strongylocentrotus purpuratus) (UniProt A0A7M7RD59)
T2 sequence: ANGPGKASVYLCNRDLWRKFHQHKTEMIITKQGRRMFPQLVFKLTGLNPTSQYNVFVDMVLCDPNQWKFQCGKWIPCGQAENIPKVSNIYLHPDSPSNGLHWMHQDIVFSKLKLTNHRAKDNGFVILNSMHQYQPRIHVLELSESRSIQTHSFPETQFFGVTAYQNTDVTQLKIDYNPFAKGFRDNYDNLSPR

[3] = system: PmTbr DNA-binding domain (T-box) (Patiria miniata); assay: SPR (steady state); conditions: SPR running buffer 50 mM Mops (pH not given; protein buffer 20 mM Mops pH 7.5), 150 mM NaCl, 1 mM DTT, 0.01% P20, 20 °C, 30 µl/min; streptavidin-coated CM5 …
[4] = system: SpTbr DNA-binding domain (T-box) (Strongylocentrotus purpuratus); assay: SPR (steady state); conditions: SPR running buffer 50 mM Mops (pH not given; protein buffer 20 mM Mops pH 7.5), 150 mM NaCl, 1 mM DTT, 0.01% P20, 20 °C, 30 µl/min; streptavidin-coated CM5 …

Sequence	binding signal (PBM E-score (-0.5 to 0.5)) [1]	binding signal (PBM E-score (-0.5 to 0.5)) [2]	Kd [3]	Kd [4]
AACACCTC (double strand) [8-mer AACACCTC]	0.491			
AAGGTGTC (double strand) [8-mer AAGGTGTC]		0.487		
AAGTGTGA (double strand) [8-mer AAGTGTGA]		0.488		
ACACCTCC (double strand) [8-mer ACACCTCC]	0.49			
ACACCTCG (double strand) [8-mer ACACCTCG]	0.49			
AGGTGCGA (double strand) [8-mer AGGTGCGA]	0.497	0.496		
AGGTGCTA (double strand) [8-mer AGGTGCTA]	0.491			
AGGTGTCA (double strand) [8-mer AGGTGTCA]	0.495	0.494		
AGGTGTCG (double strand) [8-mer AGGTGTCG]	0.492			
AGGTGTGA (double strand) [8-mer AGGTGTGA]	0.499	0.498		
AGGTGTTA (double strand) [8-mer AGGTGTTA]	0.496	0.494		
AGTGTGAA (double strand) [8-mer AGTGTGAA]		0.489		
ATCACACC (double strand) [8-mer ATCACACC]		0.488		
CACACCTC (double strand) [8-mer CACACCTC]	0.49	0.49		
CTCACACC (double strand) [8-mer CTCACACC]	0.491	0.494		
CTTTAGGTGACAAACGGTTTTCCGTTTGTCACCTAAAG [PmTbr Secondary Site Hairpin]			446 nM	989 nM
CTTTAGGTGTCGAACGGTTTTCCGTTCGACACCTAAAG [MmEomes Secondary Hairpin]			732 nM	882 nM
CTTTAGGTGTGAAACGGTTTTCCGTTTCACACCTAAAG [Primary Tbr Site Hairpin]			107 nM	137 nM
GACACCTC (double strand) [8-mer GACACCTC]	0.49			
GGGTGTGA (double strand) [8-mer GGGTGTGA]	0.492	0.493		
GGTGCGAA (double strand) [8-mer GGTGCGAA]		0.487		
GGTGTGAA (double strand) [8-mer GGTGTGAA]	0.496	0.497		
GTGTGAAA (double strand) [8-mer GTGTGAAA]	0.49	0.49		
GTGTGAAC (double strand) [8-mer GTGTGAAC]		0.493		
